The record followed here is PMC7666158.

The labels stand for the following.
B1: Sbit-ATF2(19–100), ATF2 TAD wild type (NanoBiT probe) [human] / Lbit-JNK1 (NanoBiT probe) [human] (parent)
chain 1: MSDDKPFLCTAPGCGQRFTNEDHLAVHKHKHEMTLKFGPARNDSVIVADQTPTPTRFLKNCEEVGLFNELASPFENEFKKAS
chain 2: MSRSKRDNNFYSVEIGDSTFTVLKRYQNLKPIGSGAQGIVCAAYDAILERNVAIKKLSRPFQNQTHAKRAYRELVLMKCVNHKNIIGLLNVFTPQKSLEEFQDVYIVMELMDANLCQVIQMELDHERMSYLLYQMLCGIKHLHSAGIIHRDLKPSNIVVKSDCTLKILDFGLARTAGTSFMMTPYVVTRYYRAPEVILGMGYKENVDLWSVGCIMGEMVCHKILFPGRDYIDQWNKVIEQLGTPCPEFMKKLQPTVRTYVENRPKYAGYSFEKLFPDVLFPADSEHNKLKASQARDLLSKMLVIDASKRISVDEALQHPYINVWYDPSEAEAPPPKIPDKQLDEREHTIEEWKELIYKEVMDLEERTKNGVIRGQPSPLGAAVINGSQHPSSSSSVNDVSSMSTDPTLASDTDSSLEAAAGPLGCCR

Variants of B1 are the subject of the assay. The assay can be described thus: NanoBit luciferase complementation in HEK293T cells. The note with it: with Lbit-JNK1 (NanoBiT probe) [human]; anisomycin (30 min); normalized to control (−) = 1.0; read off a plot; scale: relative luminescence intensity.
On to chain 1 K30E, for which the response is 1.
